Test results from US20090275083A1.
Positions count from the first letter of the chain named.

How the values were obtained:
[1] = target: T1, Fusarium oxysporum lipase (FoL) variant [change] (Fusarium oxysporum); assay: cell-based or functional assay
T1 chain: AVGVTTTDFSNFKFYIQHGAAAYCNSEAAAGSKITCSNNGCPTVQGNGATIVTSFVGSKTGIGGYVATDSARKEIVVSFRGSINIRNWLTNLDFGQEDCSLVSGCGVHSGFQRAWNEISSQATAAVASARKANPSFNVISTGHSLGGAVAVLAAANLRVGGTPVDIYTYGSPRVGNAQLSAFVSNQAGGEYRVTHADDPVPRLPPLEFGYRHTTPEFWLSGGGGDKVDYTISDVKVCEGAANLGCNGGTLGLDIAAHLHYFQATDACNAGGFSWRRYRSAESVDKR

[2] = target: T2, Fusarium oxysporum lipase (FoL), wild type (Fusarium oxysporum); assay: cell-based or functional assay
T2 chain: T1 chain with E207I

B1: Peptide P0 (wildtype FoL C-terminal peptide) (peptide)
peptide: ATMTDAELEKKLNSYVQMDKEYVKNNQARS
modifications: not checked
- IC50 (half maximal inhibitory concentration; p-NP butyrate hydrolysis) (peptide/lipase ratio) [1]: 287
- IC50 (half maximal inhibitory concentration; p-NP butyrate hydrolysis) (peptide/lipase ratio) [2]: 913
